This data set can be described thus: label from the status in PepcDB records.
“GLNHMTARYLREEHHMFRAAFRKFLEKEAYPHYNDWEKRGIIPRSFWAKMGENGFLCPWVDEKYGGLNADFAYSVVINEELEKVGSSLVGIGLHNDIVTPYIASYGTEEQKQKWLPKCVTGELITAIAMTEPGAGSDLANISTTAVKDGDYYIVNGQKTFITNGIHADLIVVACKTDPQAKPPHRGISLLVVERDTPGFTRGRKLEKVGLHAQDTAELFFQDAKVPAYNLLGEEGKGFYYLMEKLQQERLVVAIAAQTAAEVMFSLTKQYVKQRTAFGKRVSEFQTVQFRLAEMATEIALGRTFVDRVIEEHMAGKQIVTEVSMAKWWITEMAKRVAAEAMQLHGGYGYMEEYEIARRYRDIPVSAIYAGTNEMMKTIIARQLDL”: the protein production entry was “not failed”.

For the sequence “GLTTLIEMIETLSATRTINEVADVVRGAARRILDADGVAFVMRDKDLCWYVDEDAIGPLWKGKRFPMDQCVAGRVMKSGRVVVCPDIYADPDMPHDAYRPTFVKSLAIAPVRPRDPIAAIAVYWARPYDPPPEVLRKLQVVARATASALESGRLNDYLAASLEHGHFLLRELD”, the protein production entry is listed as “failed”.

In the case of “GMKTSGKQDEAWIMSRLIKQLTDMGFPREPAEEALKSNNMNLDQAMSALLEKKVDVDKRGLGVTDHNGMAAK”, the protein production entry is “not failed”.

As for “GMNSGKVAFIVTKNGKRICDVIDECSQRGSTILKAQGGYKQDDIQVVMCACNSKEMYQVRKSVKDTDPDSFIVVVESHEVHGEGFKMTNIGEAEN”, the protein production result was “failed”.

With “GPLGSMIVFVRFNSSHGFPVEVDSDTSIFQLKEVVAKRQGVPADQLRVIFAGKELRNDWTVQNCDLDQQSIVHIVQRPWRK”, the protein production entry is on record as “not failed”.

As to “GPSRMRHERVVIIKNMFHPMDFEDDPLVLNEIREDLRVECSKFGQIRKLLLFDRHPDGVASVSFRDPEEADYCIQTLDGRWFGGRQITAQAWDGTTDYQ”, the protein production entry is on record as “not failed”.

With “GPSSSHTVGPMLAANAFLQLLEQKNLFDKTQRVKVELYGSLALTGKGHGTDKAILNGLENKAPETVDPASMIPRMHEILDSNLLNLAGKKEIPFHEATDFLFLQKELLPKHSNGMRFSAFDGNANLLIEQVYYSIGGGFITTEEDFDK”, the protein production result was “not failed”.

Regarding “GRPDGPVRTKKLKRGRPGRKKKKVLGCPAVAGEEEVDGYETDHQDYCEVCQQGGEIILCDTCPRAYHLVCLDPELDRAPEGKWSCPHCEKEGVQ”, the protein production entry is reported as “failed”.

On to “GRYEIRFSGAGGQGLILAGVIMAEAASIYDGKQAVQSQSYGPEARGGASKSEVIISDGPVDYPKATQCDALLALTQEACDKYSADLKEGGVLLVDSDLVTKLPPGNYQTTAFNIINTAKNDVGREIVANIVALGAMVALTGVVSKEAAEKAVLSRVPEAFVELNRKAFQMGFEKALAAKK”, for which the protein production result is “not failed”.

“GSAASSALKGLIQQFTTITGASESVGKHMLEACNNNLEMAVTMFLDGGG”: the protein production result is “not failed”.

“GSAHSDEQSSGTLSSPGQSDILLTAAQGTVRKAGALAVKNFLVHKKNKKVESATRRKWKHYWVSLKGCTLFFYESDGRSGIDHNSIPKHAVWVENSIVQAVPEHPKKDFVFCLSNSLGDAFLFQTTSQTELENWITAIHSACATAVAR”: the protein production result is “failed”.

Consider “GSALIDEIRSLGESLQGYNVRHINSTIIGGGVAEILSSLVPLMEDVGLTVNWEVLAGTTEFFHTTKLFHNGMHGQPVNITGEMLENYLAIAQKNQNLLDGDADLVVIHDQQPLGLTAFRGRTRGRWLWYCHVDPRYAVPEVWYFLAPMVATCDAAVFHLP”, for which the protein production entry is on record as “failed”.

For the sequence “GSAQPRHDAQRPALAPRSDGFDIHTYHPDFVADPYPLLRLIRSRAPVCRDQASIWWISRYADVSACLRDRRFSADPARLGAAGVRQGGASWFGHQQLQPLARFYDNFMLFNDAPRHTRLRRLFAPAFGPDAVRRWEARIEVLVEELLDSLLERREPDLLRDFAEPLTIRVAAELFGFPREDTGQLLPWGRDLAAGLDLAASHGDAGQINRSAVAFSDYLQRQARGWSDGSSRPPSGAAPSILDGAAMLEAGLGLEDLVAAYAMVFMAAFETTISMVGNATLALLTHPDQLDLLRRCPELAANAVEELLRFDGAVRGGVRCTLEEVEIGGQRIPPGEKVWLSFLAANRDPEMFAAPDRLQLQRANAKQHVAFAHGPHYCLGAYLARLELQCALRGLVRRRFALASEPTDLRWRRSSVFRTLERLPIVP”, the protein production result is reported as “failed”.

Turning to “GSGLDVKNLVDAIVTAEITPSQVRHDKQLNSVNTELSALGQLKSYLTNLQTSLAKLSSLSQFYTMKSTISDPNYFSATLGTGATKNTYQIEIQKLAQQHS”, the protein production result is reported as “failed”.

Take “GSHMKEDQVVAEEPGFQDEEESLFQDIDLLQKHGINVADIKKLKSVGICTIKGIQMTTRRALCNVKGLSEAKVDKIKEAANKLIEPGFLTAFEYSEKRKMVFHITTGSQEFDKLLGGGIESMAITEAFGEFRTGKTQLSHTLCVTAQLPGAGGYPGGKIIFIDTENTFRPDRLRDIADRFNVDHDAVLDNVLYARAYTSEHQMELLDYVAAKFHEEAGIFKLLIIDSIMALFRVDFSGRGELAERQQKLAQMLSRLQKISEEYNVAVFVTNQMTADPGATMTFQADPKKPIGGHILAHASTTRISLRKGRGELRIAKIYDSPEMPENEATFAITAGGIGDAKE”: the protein production entry is on record as “not failed”.

For the sequence “GSSGSSGMCGRFAQSQTREDYLALLAEDIERDIPYDPEPIGRYNVAPGTKVLLLSERDEHLHLDPVFWGYAPGWWDKPPLINARVETAATSRMFKPLWQHGRAICFADGWFEWKKEGDKKQPFFIYRADGQPIFMAAIGSTPFERGDEAEGFLIVTAAADQGLVDIHDRRPLVLSPEAAREWMRQEISGKEASEIAASGCVPANQFSWHPVSRAVGNVKNQGAELIQPV”, the protein production entry is on record as “not failed”.

For the sequence “GSSGSSGMSSMTQNLREVMKVMFKVPGFDRVLEKVTLVSAAPEKLICEMKVEEQHTNKLGTLHGGLTATLVDSISTMALMCTERGAPGVSVDMNITYMSPAKIGEEIVITAHILKQGKTLAFASVDLTNKTTGKLIAQGRHTKHLGNSGPSSG”, the protein production result is given as “not failed”.

Take “GSSGSSGPTMEGPLRRKTLLKEGRKPALSSWTRYWVVLSGATLLYYGAKSLRGTDRKHYKSTPGKKVSIVGWMVQLPDDPEHPDIFQLNNPDKGNVYKFQTGSRFHAILWHKHLDDACKSSRPQVPANLMSFE”: the protein production entry is “not failed”.

Take “GSSGSSGSTVVMADVSQYHVNHLVTFCLGEEDGVHTVEDASRKLAVMDSQGRVWAQEMLLRVSPSQVTLLDPVSKEELESYPLDAIVRCDAVMPRGRSRSLLLLVCQEPERAQPDVHFFQGLLLGAELIREDIQGALQNYRSGRGERSGPSSG”: the protein production result is “not failed”.

On to “GTVLVSIKSSLPENNFFDDALIDELLQQFASFGEVILIRFVEDKMWVTFLEGSSALNVLSLNGKELLNRTITIALKSP”, for which the protein production result is reported as “not failed”.

As for “GYDHKGMGITARGAWESVKRHFRALGRDCQNEDFRCIGVGDMSGDVFGNGMLLSRHSLLVAAFDHRHIFLDPMPDAALSFAERERLFKLPRSSWADYDATLISKGGGIYPRTLKSIQISPQVAEVLGLDKGIKQLSPNVLISAILKAPVDLFWNGGIGTYVKASSETHADVGDRANNALRVNGLELRCKVVGEGGNLGLTQLGRIEAAQRGVLLNTDFIDNSAGVDTSDHEVNIKILLNDVVQAKTLCFDARNALLASMTDDVAQLVLWDNIRQNQALSLMERMSVKRLGSKQHFIRTLERQGLLDRQIEFLPSDAELSARKARGLGL”, the protein production entry is on record as “failed”.

With “GYTPQQLDSMVRKQDWMFLLSDRVKRSAMSLNEREKSEKYVFSFPFTKSPKDAVSGGIIKGQNLANLFTELTVGYHDSVDFNKLPIPFACVSQNIVNGEQIVFHNGILATAMRASMAIPGVFTPVRKDSMILIDGGMINNYPVDVARSMGADIIIGVDVQNNLKGID”, the protein production entry was “failed”.

Consider “HDLALSGNAYKVRLFLSLIGREATLRPVDFLNREHKTQAFLRMNPRGQIPVLEDGELQLGDSHAILVYLARRHADPVWYPLDPVSQGRIAYWLSYSANEVQNGPASARLITRFNLPLDREQTHQRGLEVLRLVDRHLAEHRWLAQGEQPSIADVALYPYLALAPEGGLALDHYPALNAWIARIRALPGYIPMPGL”, for which the protein production result is listed as “not failed”.

For the sequence “HKEFAVTMRPTEASERCHLRGSYTLRAGESALELWGGPEPGTQLYDWPYRFLRRFGRDKVTFSFEAGRRCVSGEGNFEFETRQGNEIFLALEEAISAQKN”, the protein production result is on record as “not failed”.

Regarding “HKSMSKMKSTLKQFISMGNMLTAENNFFRQMQGLLSETTEIAAMTGGIIFLADKQEGHFTPTAFRWNGENIPVAEMPSLSITEDSFTTFQPVLEGKTIAGTLNKENIFHQLQDFLQPYLPLRFVAVPMKTHDKQLLGFLLLFNPYQLNAEREHSKIQLVNALVGSLSVSVETQQLLQEQKNLLNA”, the protein production result is “failed”.

On to “HMARSLYPLGVSRSLPPYRRTFNHQTFIFVKSILRLGVSMEEEEFDIREALANGEHLEKILIMAKYDESVLKKLIELLDDDLWTVVKNAISIIMVIAKTREDLYEPMLKKLFSLLKKSEAIPLTQEIAKAFGQMAKEKPELVKSMIPVLFANYRIGDEKTKINVSYALEEIAKANPMLMASIVRDFMSMLSSKNREDKLTALNFIEAMGENSFKYVNPFLPRIINLLHDGDEIVRASAVEALVHLATLNDKLRKVVIKRLEELNDTSSLVNKTVKEGISRLLLLEGHSSS”, for which the protein production entry is “not failed”.

Turning to “HMPSVIVVGGQWGDEGKGSIVAYLSLHDEPEIIARGGVGTNAGHSVVINGKKYAVRQIPTGFMQTKARLLIGAGVLVDPEVFFHELEQLKDFNVKDRVGIDYRCAIIEEKHKQLDRTNGYLHGKIGTTGSGCGPANADRVMRKAKQAKDVKELEPYLTDVAQEINDALDEGSLVLVEGTQGFGLSLYYGTYPYVTSKDVTASSVAADVGIGPTRVDEVIVVFKSFPTRVGAGPFPTEMPMEEADRLGLVEYGTVTGRRRRVGWFDFEMARYSARINGATMLAVTMLDKYDKEAFGVTDYDKLPRKAKEFIEEIEERVGVPVGLIKTGPELEHIIDRRDTI”, the protein production result was “not failed”.

Take “HNESIRYLIVPGWQGSPDDHWQAHWQNSLPNSTRVEQADWLKPRREDWVGELQRTIAAQSTPVILIAHSLGCVTVAHWAQLAPLETLRQVQGALLVAPADVERPNCPPALRNFAPIPADLLPFPTQVVSSDNDPAVSSQRAIEMARHWGAELGFLSQAGHINVKSGHQRWEQGFAYLYRLQNRLEQ”: the protein production result was “failed”.

On to “HPQYIVFCDFDETYFPHTIDEQKQQDIYELEDYLEQKSKDGELIIGWVTGSSIESILDKMGRGKFRYFPHFIASDLGTEITYFSEHNFGQQDNKWNSRINEGFSKEKVEKLVKQLHENHNILLNPQTQLGKSRYKHNFYYQEQDEINDKKNLLAIEKICEEYGVSVNINRCNPLAGDPEDSYDVDFIPIGTGKNEIVTFMLEKYNLNTERAIAFGDSGNDVRMLQTVGNGYLLKNATQEAKNLHNLITDSEYSKGITNTLKKLIGFMRR”, for which the protein production result is listed as “failed”.

With “HQIVHVRGDSETDLEALFNAVMNPKTANVPQTVPMRLRKLPDSFFKPPEPKSHSRQASTDAGTAGALTPQHVRAHSSPASLQLGAVSPGTLTPTGVVSGPAATPTAQHLRQSS”, the protein production result is given as “failed”.

As for “HRAQRQQMTVLRGDAQSIDIIDLQTFIDSFEEHIWVKNTEGVYTICNQSVEKAWDLPRSDIVGKTDEDLFGKAIADIFLNGDRLAIEAGAPIIVAECLDGENKNNHLWLETLKLPALTPDGELAGVIGMTRNISKHKEVEEQLTLATNVFKHSF”, the protein production entry is listed as “failed”.

These data come from a protein production outcome set (Wang et al. 2014).
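Note: failed if final PepcDB status was selected cloned or expressed and not failed if soluble or beyond.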
